Results from US6498233, “Nucleic acid transfer system” (Winfried).

Biological target: scFv(FRP5)-deltaETA-deltaGAL4 (synthetic construct (Saccharomyces …))
Experiment: EMSA; […] (printed ml); 50 mM Hepes pH 7.5, 50 mM KCl, 5 mM MgCl2, […], room temperature; […] (11.3)
Settings: tags: N-terminal FLAG and His6, C-terminal KDEL signal; chain copies: 2 (stated; dimer per site, two dimers on tandem site); label: 5'-32P

B1: G4 oligonucleotide (two GAL4 motifs) (dsDNA)
DNA 1: AGCTTGGATCCGGAGGACAGTCCTCCGGAGACCGGAGGACAGTCCTCC
DNA 2: GATCGGAGGACTGTCCTCCGGTCTCCGGAGGACTGTCCTCCGGATCCA
Q: Does B1 bind?
A: binds
